# Measured values from patent publication US20130011412A1 (Genentech, published 2013).
# T1: recombinant human lymphotoxin-α homotrimer (human LTα3) (human, UniProt P01374 35-205)
# T1 construct: Coated on plates in the ELISAs; also called rhLTα; lymphotoxin-α3 trimer
# T1 sequence (looked up): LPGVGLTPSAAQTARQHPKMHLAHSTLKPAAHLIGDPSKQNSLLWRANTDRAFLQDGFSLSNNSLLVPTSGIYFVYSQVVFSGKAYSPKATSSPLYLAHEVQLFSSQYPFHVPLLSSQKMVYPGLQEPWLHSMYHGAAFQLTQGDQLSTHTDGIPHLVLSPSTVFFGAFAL
# Target: T1, recombinant human lymphotoxin-α …
# Experiment: plate-based ELISA against LTα
row,Binder,relative binding (EC50 of the variant / EC50 of version 5) [ratio]
1,"3F12 version 13 (3F12.v5 with Y31A, CDR-L1) (antibody, IgG1, V domains shown, Alanine-scan variant of 3F12.v5; human kappa / IgG1) VH: EVQLVESGGGLVQPGGSLRLSCAASGYTFSSYWIEWVRQAPGKGLEWVGEISPGSGSTNYNEEFKGRATFSADNSKNTAYLQMNSLRAEDTAVYYCADGYHGYWGQGTLVTVSS VL: DIQMTQSPSSLSASVGDRVTITCKSSQSLLASTNQKNFLAWYQQKPGKAPKLLIYWASTRDSGVPSRFSGSGSGTDFTLTISSLQPEDFATYYCQQYYSYPRTFGQGTKVEIK",3.4
2,"3F12 version 21 (3F12.v5 with S93A, CDR-L3) (antibody, IgG1, V domains shown, Alanine-scan variant of 3F12.v5; human kappa / IgG1; also called 3F12 clone 21) VH: EVQLVESGGGLVQPGGSLRLSCAASGYTFSSYWIEWVRQAPGKGLEWVGEISPGSGSTNYNEEFKGRATFSADNSKNTAYLQMNSLRAEDTAVYYCADGYHGYWGQGTLVTVSS VL: DIQMTQSPSSLSASVGDRVTITCKSSQSLLYSTNQKNFLAWYQQKPGKAPKLLIYWASTRDSGVPSRFSGSGSGTDFTLTISSLQPEDFATYYCQQYYAYPRTFGQGTKVEIK",0.82
3,"3F12 version 27 (3F12.v5 with N58A, CDR-H2) (antibody, IgG1, V domains shown, Alanine-scan variant of 3F12.v5; human kappa / IgG1) VH: EVQLVESGGGLVQPGGSLRLSCAASGYTFSSYWIEWVRQAPGKGLEWVGEISPGSGSTAYNEEFKGRATFSADNSKNTAYLQMNSLRAEDTAVYYCADGYHGYWGQGTLVTVSS VL: DIQMTQSPSSLSASVGDRVTITCKSSQSLLYSTNQKNFLAWYQQKPGKAPKLLIYWASTRDSGVPSRFSGSGSGTDFTLTISSLQPEDFATYYCQQYYSYPRTFGQGTKVEIK",1.7
4,"3F12 version 24 (3F12.v5 with G53A, CDR-H2) (antibody, IgG1, V domains shown, Alanine-scan variant of 3F12.v5; human kappa / IgG1) VH: EVQLVESGGGLVQPGGSLRLSCAASGYTFSSYWIEWVRQAPGKGLEWVGEISPASGSTNYNEEFKGRATFSADNSKNTAYLQMNSLRAEDTAVYYCADGYHGYWGQGTLVTVSS VL: DIQMTQSPSSLSASVGDRVTITCKSSQSLLYSTNQKNFLAWYQQKPGKAPKLLIYWASTRDSGVPSRFSGSGSGTDFTLTISSLQPEDFATYYCQQYYSYPRTFGQGTKVEIK",34.1
5,"3F12 version 17 (3F12.v5 with F38A, CDR-L1) (antibody, IgG1, V domains shown, Alanine-scan variant of 3F12.v5; human kappa / IgG1; also called 3F12 clone 17) VH: EVQLVESGGGLVQPGGSLRLSCAASGYTFSSYWIEWVRQAPGKGLEWVGEISPGSGSTNYNEEFKGRATFSADNSKNTAYLQMNSLRAEDTAVYYCADGYHGYWGQGTLVTVSS VL: DIQMTQSPSSLSASVGDRVTITCKSSQSLLYSTNQKNALAWYQQKPGKAPKLLIYWASTRDSGVPSRFSGSGSGTDFTLTISSLQPEDFATYYCQQYYSYPRTFGQGTKVEIK",0.32
6,"3F12 version 30 (3F12.v5 with E61A, CDR-H2) (antibody, IgG1, V domains shown, Alanine-scan variant of 3F12.v5; human kappa / IgG1) VH: EVQLVESGGGLVQPGGSLRLSCAASGYTFSSYWIEWVRQAPGKGLEWVGEISPGSGSTNYNAEFKGRATFSADNSKNTAYLQMNSLRAEDTAVYYCADGYHGYWGQGTLVTVSS VL: DIQMTQSPSSLSASVGDRVTITCKSSQSLLYSTNQKNFLAWYQQKPGKAPKLLIYWASTRDSGVPSRFSGSGSGTDFTLTISSLQPEDFATYYCQQYYSYPRTFGQGTKVEIK",1.78
7,"3F12 version 28 (3F12.v5 with Y59A, CDR-H2) (antibody, IgG1, V domains shown, Alanine-scan variant of 3F12.v5; human kappa / IgG1) VH: EVQLVESGGGLVQPGGSLRLSCAASGYTFSSYWIEWVRQAPGKGLEWVGEISPGSGSTNANEEFKGRATFSADNSKNTAYLQMNSLRAEDTAVYYCADGYHGYWGQGTLVTVSS VL: DIQMTQSPSSLSASVGDRVTITCKSSQSLLYSTNQKNFLAWYQQKPGKAPKLLIYWASTRDSGVPSRFSGSGSGTDFTLTISSLQPEDFATYYCQQYYSYPRTFGQGTKVEIK",2.73
8,"3F12 version 19 (3F12.v5 with Y91A, CDR-L3) (antibody, IgG1, V domains shown, Alanine-scan variant of 3F12.v5; human kappa / IgG1) VH: EVQLVESGGGLVQPGGSLRLSCAASGYTFSSYWIEWVRQAPGKGLEWVGEISPGSGSTNYNEEFKGRATFSADNSKNTAYLQMNSLRAEDTAVYYCADGYHGYWGQGTLVTVSS VL: DIQMTQSPSSLSASVGDRVTITCKSSQSLLYSTNQKNFLAWYQQKPGKAPKLLIYWASTRDSGVPSRFSGSGSGTDFTLTISSLQPEDFATYYCQQAYSYPRTFGQGTKVEIK",2.3
9,"3F12 version 14 of Table 2 (3F12.v5 with T33A, CDR-L1) (antibody, IgG1, V domains shown, Alanine-scan variant of 3F12.v5; human kappa / IgG1; also called 3F12 clone 14) VH: EVQLVESGGGLVQPGGSLRLSCAASGYTFSSYWIEWVRQAPGKGLEWVGEISPGSGSTNYNEEFKGRATFSADNSKNTAYLQMNSLRAEDTAVYYCADGYHGYWGQGTLVTVSS VL: DIQMTQSPSSLSASVGDRVTITCKSSQSLLYSANQKNFLAWYQQKPGKAPKLLIYWASTRDSGVPSRFSGSGSGTDFTLTISSLQPEDFATYYCQQYYSYPRTFGQGTKVEIK",0.72
10,"3F12 version 15 (3F12.v5 with N34A, CDR-L1) (antibody, IgG1, V domains shown, Alanine-scan variant of 3F12.v5; human kappa / IgG1; also called 3F12 clone 15) VH: EVQLVESGGGLVQPGGSLRLSCAASGYTFSSYWIEWVRQAPGKGLEWVGEISPGSGSTNYNEEFKGRATFSADNSKNTAYLQMNSLRAEDTAVYYCADGYHGYWGQGTLVTVSS VL: DIQMTQSPSSLSASVGDRVTITCKSSQSLLYSTAQKNFLAWYQQKPGKAPKLLIYWASTRDSGVPSRFSGSGSGTDFTLTISSLQPEDFATYYCQQYYSYPRTFGQGTKVEIK",0.49
11,"3F12 version 16 (3F12.v5 with K36A, CDR-L1) (antibody, IgG1, V domains shown, Alanine-scan variant of 3F12.v5; human kappa / IgG1) VH: EVQLVESGGGLVQPGGSLRLSCAASGYTFSSYWIEWVRQAPGKGLEWVGEISPGSGSTNYNEEFKGRATFSADNSKNTAYLQMNSLRAEDTAVYYCADGYHGYWGQGTLVTVSS VL: DIQMTQSPSSLSASVGDRVTITCKSSQSLLYSTNQANFLAWYQQKPGKAPKLLIYWASTRDSGVPSRFSGSGSGTDFTLTISSLQPEDFATYYCQQYYSYPRTFGQGTKVEIK",3.7
12,"3F12 version 26 (3F12.v5 with S56A, CDR-H2) (antibody, IgG1, V domains shown, Alanine-scan variant of 3F12.v5; human kappa / IgG1) VH: EVQLVESGGGLVQPGGSLRLSCAASGYTFSSYWIEWVRQAPGKGLEWVGEISPGSGATNYNEEFKGRATFSADNSKNTAYLQMNSLRAEDTAVYYCADGYHGYWGQGTLVTVSS VL: DIQMTQSPSSLSASVGDRVTITCKSSQSLLYSTNQKNFLAWYQQKPGKAPKLLIYWASTRDSGVPSRFSGSGSGTDFTLTISSLQPEDFATYYCQQYYSYPRTFGQGTKVEIK",1.07
13,"3F12 version 22 (3F12.v5 with Y94A, CDR-L3) (antibody, IgG1, V domains shown, Alanine-scan variant of 3F12.v5; human kappa / IgG1) VH: EVQLVESGGGLVQPGGSLRLSCAASGYTFSSYWIEWVRQAPGKGLEWVGEISPGSGSTNYNEEFKGRATFSADNSKNTAYLQMNSLRAEDTAVYYCADGYHGYWGQGTLVTVSS VL: DIQMTQSPSSLSASVGDRVTITCKSSQSLLYSTNQKNFLAWYQQKPGKAPKLLIYWASTRDSGVPSRFSGSGSGTDFTLTISSLQPEDFATYYCQQYYSAPRTFGQGTKVEIK",14.3
14,"3F12 version 9 (3F12.v5 with Y99A, CDR-H3) (antibody, IgG1, V domains shown, Alanine-scan variant of 3F12.v5; human kappa / IgG1) VH: EVQLVESGGGLVQPGGSLRLSCAASGYTFSSYWIEWVRQAPGKGLEWVGEISPGSGSTNYNEEFKGRATFSADNSKNTAYLQMNSLRAEDTAVYYCADGAHGYWGQGTLVTVSS VL: DIQMTQSPSSLSASVGDRVTITCKSSQSLLYSTNQKNFLAWYQQKPGKAPKLLIYWASTRDSGVPSRFSGSGSGTDFTLTISSLQPEDFATYYCQQYYSYPRTFGQGTKVEIK",10
15,"3F12 version 29 (3F12.v5 with N60A, CDR-H2) (antibody, IgG1, V domains shown, Alanine-scan variant of 3F12.v5; human kappa / IgG1) VH: EVQLVESGGGLVQPGGSLRLSCAASGYTFSSYWIEWVRQAPGKGLEWVGEISPGSGSTNYAEEFKGRATFSADNSKNTAYLQMNSLRAEDTAVYYCADGYHGYWGQGTLVTVSS VL: DIQMTQSPSSLSASVGDRVTITCKSSQSLLYSTNQKNFLAWYQQKPGKAPKLLIYWASTRDSGVPSRFSGSGSGTDFTLTISSLQPEDFATYYCQQYYSYPRTFGQGTKVEIK",2.31
16,"3F12 version 12 (3F12.v5 with Y102A, CDR-H3) (antibody, IgG1, V domains shown, Alanine-scan variant of 3F12.v5; human kappa / IgG1; also called 3F12 clone 12) VH: EVQLVESGGGLVQPGGSLRLSCAASGYTFSSYWIEWVRQAPGKGLEWVGEISPGSGSTNYNEEFKGRATFSADNSKNTAYLQMNSLRAEDTAVYYCADGYHGAWGQGTLVTVSS VL: DIQMTQSPSSLSASVGDRVTITCKSSQSLLYSTNQKNFLAWYQQKPGKAPKLLIYWASTRDSGVPSRFSGSGSGTDFTLTISSLQPEDFATYYCQQYYSYPRTFGQGTKVEIK",0.81
17,"3F12 version 20 (3F12.v5 with Y92A, CDR-L3) (antibody, IgG1, V domains shown, Alanine-scan variant of 3F12.v5; human kappa / IgG1; also called 3F12 clone 20) VH: EVQLVESGGGLVQPGGSLRLSCAASGYTFSSYWIEWVRQAPGKGLEWVGEISPGSGSTNYNEEFKGRATFSADNSKNTAYLQMNSLRAEDTAVYYCADGYHGYWGQGTLVTVSS VL: DIQMTQSPSSLSASVGDRVTITCKSSQSLLYSTNQKNFLAWYQQKPGKAPKLLIYWASTRDSGVPSRFSGSGSGTDFTLTISSLQPEDFATYYCQQYASYPRTFGQGTKVEIK",0.71
18,"3F12 version 25 (3F12.v5 with G55A, CDR-H2) (antibody, IgG1, V domains shown, Alanine-scan variant of 3F12.v5; human kappa / IgG1) VH: EVQLVESGGGLVQPGGSLRLSCAASGYTFSSYWIEWVRQAPGKGLEWVGEISPGSASTNYNEEFKGRATFSADNSKNTAYLQMNSLRAEDTAVYYCADGYHGYWGQGTLVTVSS VL: DIQMTQSPSSLSASVGDRVTITCKSSQSLLYSTNQKNFLAWYQQKPGKAPKLLIYWASTRDSGVPSRFSGSGSGTDFTLTISSLQPEDFATYYCQQYYSYPRTFGQGTKVEIK",1.2
19,"3F12 version 23 (3F12.v5 with R96A, CDR-L3) (antibody, IgG1, V domains shown, Alanine-scan variant of 3F12.v5; human kappa / IgG1) VH: EVQLVESGGGLVQPGGSLRLSCAASGYTFSSYWIEWVRQAPGKGLEWVGEISPGSGSTNYNEEFKGRATFSADNSKNTAYLQMNSLRAEDTAVYYCADGYHGYWGQGTLVTVSS VL: DIQMTQSPSSLSASVGDRVTITCKSSQSLLYSTNQKNFLAWYQQKPGKAPKLLIYWASTRDSGVPSRFSGSGSGTDFTLTISSLQPEDFATYYCQQYYSYPATFGQGTKVEIK",18.2
20,"3F12 version 18 (3F12.v5 with Q89A, CDR-L3) (antibody, IgG1, V domains shown, Alanine-scan variant of 3F12.v5; human kappa / IgG1) VH: EVQLVESGGGLVQPGGSLRLSCAASGYTFSSYWIEWVRQAPGKGLEWVGEISPGSGSTNYNEEFKGRATFSADNSKNTAYLQMNSLRAEDTAVYYCADGYHGYWGQGTLVTVSS VL: DIQMTQSPSSLSASVGDRVTITCKSSQSLLYSTNQKNFLAWYQQKPGKAPKLLIYWASTRDSGVPSRFSGSGSGTDFTLTISSLQPEDFATYYCAQYYSYPRTFGQGTKVEIK",4.2
